Results reported in the supplement of paper PMC9732359.
± gives the uncertainty stated by the source.

Experiment: protein stability index of a GFP-peptide fusion (yeast GPS) (PSI 1-4); higher = more stable; sorted into four equal gates, so the index is relative within each strain
How it was run: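 Each library plasmid carries Cherry plus GFP with a tiled 17-residue yeast protein peptide fused downstream, and the pooled library was carried in yeast. Mid-log cultures in leucine-free medium were sorted into four equal gates by GFP/Cherry ratio. Reads from Illumina sequencing of PCR-amplified plasmids from each gate were assigned to strains by barcodes. Per peptide, the protein stability index was computed as the summed products of gate read frequency and gate number.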

Sequence | protein stability index (doa10∆) | protein stability index (pdr5∆) | protein stability index (san1∆) | protein stability index (ubr1∆)
YLERIELSFYILYSFKL [YML103C/NUP188] | 1.49 ± 0.057 | 1.37 ± 0.044 | 1.2 ± 0.08 | 1.59 ± 0.037
TFGKKADVTSNIDSSAQ [YOR098C/NUP1] | 2.09 ± 0.058 | 2.23 ± 0.045 | 1.91 ± 0.11 | 2.57 ± 0.038
SARNYDKFKLNENDLKT [SMC1] | 2.55 ± 0.093 | 2.46 ± 0.088 | 2.35 ± 0.22 | 2.53 ± 0.063
KQERSKQERLKENEESL [PRP28] | 3.21 ± 0.2 | 3.62 ± 0.17 | 3.22 ± 0.13 | 3.31 ± 0.11
VIIRRLKTRDWIVVLPW [POP1] | 1.9 ± 0.072 | 1.46 ± 0.13 | 1.98 ± 0.15 | 1.82 ± 0.057
DEADKMIDLGFEDQVTN [PRP28] | 3.16 ± 0.098 | 3.34 ± 0.11 | 3.16 ± 0.11 | 3.1 ± 0.061
LGKYEFSKILPAALDGL [ESC2] | 2.28 ± 0.055 | 2.67 ± 0.072 | 1.61 ± 0.13 | 2 ± 0.086
LLMRLEGNYRNLNNLKQ [RPB8] | 3.29 ± 0.14 | 3.13 ± 0.13 | 3.22 ± 0.2 | 3.37 ± 0.082
DNEGVASKSKKKFNMGK [RPC53] | 3.33 ± 0.091 | 3.12 ± 0.13 | 3.15 ± 0.08 | 3.42 ± 0.08
NLGSRTKNNTQASGITA [SSN3] | 2.44 ± 0.065 | 2.38 ± 0.045 | 2.18 ± 0.054 | 2.65 ± 0.043
NLLSKRNQEKKMEKKKS [SNM1] | 3.09 ± 0.16 | 3.38 ± 0.28 | – | –
FAAIPEQGIELEHIDSK [FAS2] | 3.17 ± 0.16 | 2.85 ± 0.21 | 3.39 ± 0.084 | 3.41 ± 0.1
NGEIKGENIDADNDGPR [SNF2] | 3.07 ± 0.074 | 3.48 ± 0.069 | 3.49 ± 0.063 | 3.08 ± 0.073
KYKSGGKFSFSPLQKEE [SSN2] | 1.54 ± 0.072 | 1.43 ± 0.064 | 1.46 ± 0.15 | 1.53 ± 0.047
MNFNTPQQNKTPFSFGT [YJL041W/NSP1] | 3.15 ± 0.057 | 3 ± 0.051 | 2.92 ± 0.061 | 2.95 ± 0.05
SPELKADLRPLQIKSIR [RPS7B] | 2.42 ± 0.14 | 2.9 ± 0.13 | 2.67 ± 0.13 | 2.98 ± 0.091
FISYHDKYLCMLKTCVF [NUT1] | 2.67 ± 0.057 | 2.95 ± 0.064 | 3.03 ± 0.061 | 2.13 ± 0.042
FITNVQSISQNSSSSTP [SWI1] | 2.38 ± 0.069 | 2.63 ± 0.063 | 2.43 ± 0.064 | 2.44 ± 0.05
VKYASPNLNMKYRKRQL [FAS2] | 3.6 ± 0.14 | 3.19 ± 0.09 | 3.02 ± 0.093 | 2.88 ± 0.068
IYQVPEKDLEHWLQLAK [POP1] | 3.22 ± 0.12 | 3.13 ± 0.13 | 3.42 ± 0.091 | 3.1 ± 0.099
KMLKIWTMAFRTMDDIK [ECM29] | 2.03 ± 0.11 | 1.76 ± 0.1 | 2.06 ± 0.12 | 1.96 ± 0.075
VIRIPMQENDKINQERL [CSI1] | 2.42 ± 0.083 | 2.83 ± 0.085 | 2.37 ± 0.11 | 2.82 ± 0.072
EKIWFAISKENLCGDIS [SIR3] | 2.39 ± 0.064 | 2.44 ± 0.078 | 2.27 ± 0.11 | 1.91 ± 0.078
SQVFGVARIYASFNDTF [RPS14A] | 2.05 ± 0.062 | 1.81 ± 0.045 | 2.11 ± 0.073 | 2.38 ± 0.056
EEASQQQQLQQNSKEKN [MED2] | 2.85 ± 0.092 | 2.85 ± 0.086 | 2.92 ± 0.071 | 2.83 ± 0.065

Sequence | protein stability index (doa10∆) | protein stability index (pdr5∆) | protein stability index (san1∆) | protein stability index (ubr1∆)
PSTGGVKKPHRYKPGTV [HHT1] | 1.59 ± 0.065 | 1.62 ± 0.057 | 1.64 ± 0.097 | 1.81 ± 0.072
TVIEGVKEESQPDENTK [SWI3] | 3.13 ± 0.17 | 3.28 ± 0.15 | 2.74 ± 0.12 | 3 ± 0.089
DDYKDLTCSLYELYINK [IRR1] | 2.74 ± 0.084 | 2.75 ± 0.12 | 3.16 ± 0.056 | 2.94 ± 0.079
DSFKYEPLAPGNDNLIK [YLR335W/NUP2] | 2.61 ± 0.061 | 2.75 ± 0.045 | 2.63 ± 0.045 | 2.85 ± 0.044
NNEKVVQYLRSVQDLGG [YML031W/NDC1] | 3.1 ± 0.2 | 3.04 ± 0.27 | 3.44 ± 0.19 | 3.61 ± 0.24
QGRRLGESIMSEEPTDF [MCD1] | 3.21 ± 0.11 | 3.36 ± 0.13 | 3.32 ± 0.069 | 3.23 ± 0.092
SSLMNGLGYVFEFQYLT [SRB5] | 2.25 ± 0.095 | 1.83 ± 0.085 | 1.64 ± 0.084 | 3.19 ± 0.073
ASGLLRAYLSHSNRCIV [CSN12] | 1.85 ± 0.04 | 1.56 ± 0.04 | 1.7 ± 0.063 | 1.25 ± 0.027
GHIGAYLIVAGVDPTGS [PUP1] | 1.48 ± 0.1 | 1.83 ± 0.093 | 1.68 ± 0.16 | 1.65 ± 0.11
YILRYLHANGASFFFMV [COB] | 1.57 ± 0.041 | 1.27 ± 0.033 | 1.39 ± 0.081 | 1.36 ± 0.038
SHLWEIDIPLDEQAFYN [RPC37] | – | 2.45 ± 0.27 | 2.98 ± 0.24 | –
FKSTMLQVSEKDLFELE [ARP7] | 1.25 ± 0.089 | 2.49 ± 0.11 | 1.1 ± 0.16 | 1.4 ± 0.098
SSHAKGIVLEKLGIESK [RPS23A] | 3.02 ± 0.15 | 2.88 ± 0.13 | 2.67 ± 0.095 | 3.17 ± 0.17
SAGLDSAQQNLASSFVN [RPN1] | – | 2.96 ± 0.16 | 2.79 ± 0.17 | 3.2 ± 0.2
IASDGSYVNYRHMALLV [RPO21] | 1.68 ± 0.055 | 1.89 ± 0.051 | 1.35 ± 0.067 | 1.59 ± 0.038
CLENARSQISEKDAKIN [SIR4] | 3.09 ± 0.078 | 3.23 ± 0.081 | 3.13 ± 0.066 | 2.98 ± 0.064
QREFKEIMEERNVEQKL [NNF1] | – | – | 2.79 ± 0.24 | –
LLWLVLIHPENFTCNRK [SWI1] | 1.9 ± 0.056 | 1.92 ± 0.063 | 2.38 ± 0.064 | 2.96 ± 0.074
FQKETNMKVTILHGSKS [PRP28] | – | 3.38 ± 0.29 | 3.21 ± 0.093 | 3.18 ± 0.21
SAHQSPIMQTQMPLNSN [SNF2] | 2.94 ± 0.11 | 2.37 ± 0.091 | 2.54 ± 0.075 | 2.17 ± 0.053
RIAVLHQKTKTLASLSI [YGL172W/NUP49] | 2.31 ± 0.081 | 2.25 ± 0.062 | 2.26 ± 0.07 | 2.75 ± 0.066
QVRNQVFMLDTKRLGTP [RGR1] | 2.77 ± 0.099 | 2.46 ± 0.11 | 2.75 ± 0.084 | 2.89 ± 0.17
ENANADLENKFNRLKKQ [YIL149C/MLP2] | 3.06 ± 0.067 | 3.07 ± 0.057 | 3.09 ± 0.068 | 3 ± 0.037
VEETEVPTVPPSQSEEQ [MED4] | 2.73 ± 0.079 | 2.69 ± 0.1 | 2.43 ± 0.13 | 2.74 ± 0.055
FPLCVHLVSNELEQLSS [RPL10] | 2.7 ± 0.079 | 2.71 ± 0.065 | 2.52 ± 0.089 | 2.44 ± 0.049
